Experimental data published in US20240261333A1, “NOVEL TARGETS FOR ENHANCING ANTI-TUMOR IMMUNITY” (THE BROAD INSTITUTE, INC., priority 2021, published 2024).

Experiments:
CHCHD3 (human) = CHCHD3 (human) (UniProt Q9NX63); assay: control IP with IgG, lysate of cells with N-FLAG B3GNT2, mass spectrometry
DHX9 (human) = DHX9 (human) (UniProt Q08211); assay: as above
EIF3A (human) = EIF3A (human) (UniProt Q14152); assay: as above
FLG (human) = FLG (human) (UniProt P20930); assay: as above
GBF1 (human) = GBF1 (human) (UniProt Q92538); assay: as above
GEMIN4 (human) = GEMIN4 (human) (UniProt P57678); assay: as above
GSN (human) = GSN (human) (UniProt P06396); assay: as above
Chain of GSN (human) (P06396 28-782 limits assumed): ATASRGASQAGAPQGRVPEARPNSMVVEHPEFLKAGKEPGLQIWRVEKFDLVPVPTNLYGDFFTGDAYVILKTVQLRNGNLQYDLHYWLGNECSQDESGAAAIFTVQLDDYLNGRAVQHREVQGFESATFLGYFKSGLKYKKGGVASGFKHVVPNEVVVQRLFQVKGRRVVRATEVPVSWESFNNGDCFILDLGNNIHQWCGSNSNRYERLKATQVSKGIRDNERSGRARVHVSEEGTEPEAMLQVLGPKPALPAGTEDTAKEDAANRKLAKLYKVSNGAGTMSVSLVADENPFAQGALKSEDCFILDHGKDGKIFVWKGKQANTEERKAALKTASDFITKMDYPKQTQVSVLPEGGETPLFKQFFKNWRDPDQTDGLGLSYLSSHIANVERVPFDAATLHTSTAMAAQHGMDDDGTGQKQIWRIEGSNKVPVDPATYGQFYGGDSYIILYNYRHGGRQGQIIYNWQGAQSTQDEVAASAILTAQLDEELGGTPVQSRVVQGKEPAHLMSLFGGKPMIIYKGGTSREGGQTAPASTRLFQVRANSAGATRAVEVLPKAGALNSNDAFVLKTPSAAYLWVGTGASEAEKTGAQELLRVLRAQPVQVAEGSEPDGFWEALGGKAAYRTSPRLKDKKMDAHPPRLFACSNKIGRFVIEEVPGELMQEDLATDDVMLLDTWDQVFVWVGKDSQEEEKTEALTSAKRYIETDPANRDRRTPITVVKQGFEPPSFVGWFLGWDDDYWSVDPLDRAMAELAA

IL13RA2 (human) = IL13RA2 (human) (UniProt Q14627); assay: as above
LCN1 (human) = LCN1 (human) (UniProt P31025); assay: as above
LGALS7B (human) = LGALS7B (human) (UniProt P47929); assay: as above
Chain of LGALS7B (human) (P47929 whole entry): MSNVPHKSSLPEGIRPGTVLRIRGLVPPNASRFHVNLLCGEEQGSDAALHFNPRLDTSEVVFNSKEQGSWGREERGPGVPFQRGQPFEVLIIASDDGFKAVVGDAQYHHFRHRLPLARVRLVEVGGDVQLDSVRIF

PPFIBP1 (human) = PPFIBP1 (human) (UniProt Q86W92); assay: as above
RHOT2 (human) = RHOT2 (human) (UniProt Q8IXI1); assay: as above
Chain of RHOT2 (human) (Q8IXI1 whole entry): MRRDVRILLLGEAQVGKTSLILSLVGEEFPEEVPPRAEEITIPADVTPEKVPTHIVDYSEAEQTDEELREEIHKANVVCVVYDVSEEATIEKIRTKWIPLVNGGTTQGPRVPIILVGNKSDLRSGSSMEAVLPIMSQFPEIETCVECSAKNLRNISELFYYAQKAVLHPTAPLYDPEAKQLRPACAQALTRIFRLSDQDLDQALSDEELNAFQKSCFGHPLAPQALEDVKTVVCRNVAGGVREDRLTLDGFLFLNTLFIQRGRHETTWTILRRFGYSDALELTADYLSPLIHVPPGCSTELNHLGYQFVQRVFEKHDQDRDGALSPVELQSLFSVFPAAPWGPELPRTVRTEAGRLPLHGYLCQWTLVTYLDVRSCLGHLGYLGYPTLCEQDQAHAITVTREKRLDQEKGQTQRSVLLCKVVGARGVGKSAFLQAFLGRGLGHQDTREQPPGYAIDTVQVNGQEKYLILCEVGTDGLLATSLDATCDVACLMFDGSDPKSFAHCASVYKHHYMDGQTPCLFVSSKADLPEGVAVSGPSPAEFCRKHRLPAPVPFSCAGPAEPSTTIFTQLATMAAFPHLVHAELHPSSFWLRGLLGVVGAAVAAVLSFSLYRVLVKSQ

RPL23 (human) = RPL23 (human) (UniProt P62829); assay: as above
RPL7 (human) = RPL7 (human) (UniProt P18124); assay: as above
RPS26 (human) = RPS26 (human) (UniProt P62854); assay: as above
RPS27A (human) = RPS27A (human) (UniProt P62979); assay: as above
SERPINB3 (human) = SERPINB3 (human) (UniProt P29508); assay: as above
SYNCRIP (human) = SYNCRIP (human) (UniProt O60506); assay: as above
TELO2 (human) = TELO2 (human) (UniProt Q9Y4R8); assay: as above
TPM3 (human) = TPM3 (human) (UniProt P06753); assay: as above
YBX1 (human) = YBX1 (human) (UniProt P67809); assay: as above
Chain of YBX1 (human) (P67809 2-324 limits assumed): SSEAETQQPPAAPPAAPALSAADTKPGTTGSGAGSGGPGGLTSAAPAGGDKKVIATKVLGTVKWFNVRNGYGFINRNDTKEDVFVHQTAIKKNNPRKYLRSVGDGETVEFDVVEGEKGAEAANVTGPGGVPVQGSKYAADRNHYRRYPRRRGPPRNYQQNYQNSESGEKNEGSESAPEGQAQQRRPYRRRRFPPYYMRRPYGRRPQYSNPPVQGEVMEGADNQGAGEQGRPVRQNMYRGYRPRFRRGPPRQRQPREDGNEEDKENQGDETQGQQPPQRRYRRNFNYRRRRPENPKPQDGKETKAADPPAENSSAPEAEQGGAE

YTHDF2 (human) = molecular target: T1, YTHDF2 (human) (UniProt Q9Y5A9); assay: as above
T1 sequence (looked up): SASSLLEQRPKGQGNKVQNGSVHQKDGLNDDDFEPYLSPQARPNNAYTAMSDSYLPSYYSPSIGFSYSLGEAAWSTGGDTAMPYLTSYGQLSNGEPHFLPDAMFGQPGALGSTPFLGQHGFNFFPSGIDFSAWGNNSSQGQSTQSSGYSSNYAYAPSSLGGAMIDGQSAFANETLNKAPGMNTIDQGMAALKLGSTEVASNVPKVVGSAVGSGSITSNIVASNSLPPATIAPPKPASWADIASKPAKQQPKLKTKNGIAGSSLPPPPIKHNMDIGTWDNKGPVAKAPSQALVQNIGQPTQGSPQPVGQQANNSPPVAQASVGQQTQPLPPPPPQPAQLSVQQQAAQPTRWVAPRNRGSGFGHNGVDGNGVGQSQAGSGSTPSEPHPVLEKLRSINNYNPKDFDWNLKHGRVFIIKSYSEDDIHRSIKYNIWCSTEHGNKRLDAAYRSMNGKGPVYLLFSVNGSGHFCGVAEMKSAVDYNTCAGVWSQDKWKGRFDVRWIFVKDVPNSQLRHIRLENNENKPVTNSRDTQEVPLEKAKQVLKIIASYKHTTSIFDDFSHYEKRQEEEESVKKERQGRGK

ARHGEF2 (human) = ARHGEF2 (human) (UniProt Q92974); assay: co-IP with control IgG, mass spectrometry; lysate of cells with N-FLAG B3GNT2
CCT2 (human) = CCT2 (human) (UniProt P78371); assay: as above
CD70 (human) = CD70 (human) (UniProt P32970); assay: as above
Chain of CD70 (human) (P32970 whole entry): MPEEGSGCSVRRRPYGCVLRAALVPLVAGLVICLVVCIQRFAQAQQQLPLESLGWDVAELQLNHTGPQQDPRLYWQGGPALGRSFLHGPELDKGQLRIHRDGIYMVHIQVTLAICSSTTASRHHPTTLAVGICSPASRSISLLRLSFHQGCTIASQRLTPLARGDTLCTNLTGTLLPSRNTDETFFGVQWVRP

EPRS (human) = EPRS (human) (UniProt P07814); assay: as above
Chain of EPRS (human) (P07814 whole entry): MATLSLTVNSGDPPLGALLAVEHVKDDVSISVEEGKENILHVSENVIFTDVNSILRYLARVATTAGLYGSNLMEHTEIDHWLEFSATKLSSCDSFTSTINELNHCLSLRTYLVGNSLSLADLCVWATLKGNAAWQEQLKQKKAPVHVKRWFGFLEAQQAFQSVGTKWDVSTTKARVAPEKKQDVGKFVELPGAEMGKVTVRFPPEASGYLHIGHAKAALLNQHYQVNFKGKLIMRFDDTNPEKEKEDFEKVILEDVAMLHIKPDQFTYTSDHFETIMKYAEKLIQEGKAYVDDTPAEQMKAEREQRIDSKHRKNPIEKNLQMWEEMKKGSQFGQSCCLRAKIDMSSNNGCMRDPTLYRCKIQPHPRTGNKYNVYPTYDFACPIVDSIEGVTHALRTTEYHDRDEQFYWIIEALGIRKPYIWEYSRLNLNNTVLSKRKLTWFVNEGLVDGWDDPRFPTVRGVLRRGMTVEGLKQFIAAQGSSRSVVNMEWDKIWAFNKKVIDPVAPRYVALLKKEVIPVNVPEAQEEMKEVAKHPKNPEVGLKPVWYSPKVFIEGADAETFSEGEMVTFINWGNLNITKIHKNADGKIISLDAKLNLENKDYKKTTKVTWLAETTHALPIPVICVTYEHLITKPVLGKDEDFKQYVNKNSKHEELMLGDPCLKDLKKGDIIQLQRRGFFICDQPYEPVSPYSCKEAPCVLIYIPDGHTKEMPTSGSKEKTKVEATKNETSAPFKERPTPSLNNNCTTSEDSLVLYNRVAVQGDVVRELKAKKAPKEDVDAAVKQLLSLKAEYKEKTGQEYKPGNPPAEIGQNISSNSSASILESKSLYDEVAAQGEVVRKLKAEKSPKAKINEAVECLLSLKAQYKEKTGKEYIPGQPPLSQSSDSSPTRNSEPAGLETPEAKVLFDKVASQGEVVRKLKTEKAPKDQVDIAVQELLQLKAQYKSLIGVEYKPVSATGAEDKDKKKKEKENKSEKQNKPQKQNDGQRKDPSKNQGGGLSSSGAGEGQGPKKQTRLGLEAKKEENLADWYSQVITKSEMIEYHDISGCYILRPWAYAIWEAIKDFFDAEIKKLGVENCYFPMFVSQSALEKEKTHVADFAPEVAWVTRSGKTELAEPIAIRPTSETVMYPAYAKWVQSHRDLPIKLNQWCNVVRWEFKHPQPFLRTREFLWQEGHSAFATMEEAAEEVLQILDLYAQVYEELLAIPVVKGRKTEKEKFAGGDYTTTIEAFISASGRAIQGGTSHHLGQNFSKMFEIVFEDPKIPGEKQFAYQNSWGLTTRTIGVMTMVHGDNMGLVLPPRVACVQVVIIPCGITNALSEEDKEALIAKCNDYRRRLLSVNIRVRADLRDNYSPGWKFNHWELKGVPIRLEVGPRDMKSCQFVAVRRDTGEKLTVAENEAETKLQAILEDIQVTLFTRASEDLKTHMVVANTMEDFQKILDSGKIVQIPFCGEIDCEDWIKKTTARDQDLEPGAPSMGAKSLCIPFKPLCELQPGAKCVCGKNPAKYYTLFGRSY

GALNT2 (human) = GALNT2 (human) (UniProt Q10471); assay: as above
MSN (human) = MSN (human) (UniProt P26038); assay: as above
PJA2 (human) = PJA2 (human) (UniProt O43164); assay: as above
RPL9 (human) = RPL9 (human) (UniProt P32969); assay: as above
RPS27 (human) = RPS27 (human) (UniProt P42677); assay: as above
SLC25A5 (human) = SLC25A5 (human) (UniProt P05141); assay: as above

Chain of DHX9 (human) (Q08211 whole entry): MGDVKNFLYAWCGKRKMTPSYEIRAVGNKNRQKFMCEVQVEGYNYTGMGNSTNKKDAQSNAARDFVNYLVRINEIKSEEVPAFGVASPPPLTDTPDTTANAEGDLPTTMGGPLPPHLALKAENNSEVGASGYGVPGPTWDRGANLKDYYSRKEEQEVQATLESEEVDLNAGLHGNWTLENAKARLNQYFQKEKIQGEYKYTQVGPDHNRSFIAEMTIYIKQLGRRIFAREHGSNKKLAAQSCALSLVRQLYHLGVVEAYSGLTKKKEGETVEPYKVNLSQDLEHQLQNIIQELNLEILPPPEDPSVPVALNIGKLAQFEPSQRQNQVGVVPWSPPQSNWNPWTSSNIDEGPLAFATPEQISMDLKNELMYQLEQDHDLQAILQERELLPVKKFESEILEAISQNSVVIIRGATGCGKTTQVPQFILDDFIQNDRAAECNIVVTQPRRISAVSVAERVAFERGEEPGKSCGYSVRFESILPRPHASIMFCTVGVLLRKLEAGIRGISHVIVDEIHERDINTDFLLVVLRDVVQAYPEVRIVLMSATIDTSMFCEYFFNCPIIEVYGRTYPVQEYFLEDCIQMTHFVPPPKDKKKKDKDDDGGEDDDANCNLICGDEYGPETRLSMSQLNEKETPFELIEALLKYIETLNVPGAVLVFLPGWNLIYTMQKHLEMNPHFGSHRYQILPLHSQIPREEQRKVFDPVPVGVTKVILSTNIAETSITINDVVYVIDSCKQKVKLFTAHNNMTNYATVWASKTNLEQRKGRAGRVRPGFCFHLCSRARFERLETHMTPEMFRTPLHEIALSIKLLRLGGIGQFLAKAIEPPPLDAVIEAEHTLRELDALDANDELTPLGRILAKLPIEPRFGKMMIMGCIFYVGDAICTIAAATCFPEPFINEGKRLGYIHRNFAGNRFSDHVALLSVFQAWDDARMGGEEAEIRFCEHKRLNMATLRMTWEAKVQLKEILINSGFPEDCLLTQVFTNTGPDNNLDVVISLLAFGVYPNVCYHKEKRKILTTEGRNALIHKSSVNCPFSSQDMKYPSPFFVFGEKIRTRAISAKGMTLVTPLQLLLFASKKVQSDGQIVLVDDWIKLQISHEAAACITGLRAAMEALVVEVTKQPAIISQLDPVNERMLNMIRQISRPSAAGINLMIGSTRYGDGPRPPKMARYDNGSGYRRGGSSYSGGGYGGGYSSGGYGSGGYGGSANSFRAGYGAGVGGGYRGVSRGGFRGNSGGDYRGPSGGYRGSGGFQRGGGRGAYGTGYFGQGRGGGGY
Chain of CHCHD3 (human) (Q9NX63 2-227 limits assumed): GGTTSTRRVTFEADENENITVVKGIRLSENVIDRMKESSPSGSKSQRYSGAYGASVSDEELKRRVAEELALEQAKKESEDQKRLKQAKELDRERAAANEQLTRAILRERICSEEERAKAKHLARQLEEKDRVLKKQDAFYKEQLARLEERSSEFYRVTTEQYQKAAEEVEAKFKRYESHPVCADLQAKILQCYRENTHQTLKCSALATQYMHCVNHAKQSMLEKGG

With “IgG control (Millipore Sigma 12-371) (antibody)” the co-IP mass spectrometry count (CHCHD3 (human)) was 10, the co-IP mass spectrometry count (DHX9 (human)) was 0 and the co-IP mass spectrometry count (EIF3A (human)) was 3. The co-IP mass spectrometry count (FLG (human)) was 20, the co-IP mass spectrometry count (GBF1 (human)) was 0 and the co-IP mass spectrometry count (GEMIN4 (human)) was 0. It also gave a co-IP mass spectrometry count (GSN (human)) of 0, a co-IP mass spectrometry count (IL13RA2 (human)) of 0 and a co-IP mass spectrometry count (LCN1 (human)) of 9. The co-IP mass spectrometry count (LGALS7B (human)) was 4, the co-IP mass spectrometry count (PPFIBP1 (human)) was 0 and the co-IP mass spectrometry count (RHOT2 (human)) was 0. For the same substance, the co-IP mass spectrometry count (RPL23 (human)) was 5, the co-IP mass spectrometry count (RPL7 (human)) was 5 and the co-IP mass spectrometry count (RPS26 (human)) was 4. For the same substance, the co-IP mass spectrometry count (RPS27A (human)) was 11, the co-IP mass spectrometry count (SERPINB3 (human)) was 3 and the co-IP mass spectrometry count (SYNCRIP (human)) was 6. It also gave a co-IP mass spectrometry count (TELO2 (human)) of 0, a co-IP mass spectrometry count (TPM3 (human)) of 5 and a co-IP mass spectrometry count (YBX1 (human)) of 3. The co-IP mass spectrometry count (YTHDF2 (human)) was 4, the co-IP mass spectrometry count (ARHGEF2 (human)) was 0 and the co-IP mass spectrometry count (CCT2 (human)) was 0. It also gave a co-IP mass spectrometry count (CD70 (human)) of 0, a co-IP mass spectrometry count (EPRS (human)) of 0 and a co-IP mass spectrometry count (GALNT2 (human)) of 0. It also gave a co-IP mass spectrometry count (MSN (human)) of 0, a co-IP mass spectrometry count (PJA2 (human)) of 0 and a co-IP mass spectrometry count (RPL9 (human)) of 0. It also gave a co-IP mass spectrometry count (RPS27 (human)) of 0 and a co-IP mass spectrometry count (SLC25A5 (human)) of 6.
